Results on 11 molecules are retold here after patent US20190202901A1 (PIERRE FABRE MEDICAMENT, published 2019).

Like-named read-outs stand apart in the source and are kept apart here.

The target of assay [1] is T1, human IGF-1R, native, on cells (MCF-7, hIGF-1R transfected cells, tumor sections, primary normal cells) (human, UniProt P08069 31-1367). Nature of the assay: cell-based or functional assay.
Assay [2] concerns the target T1, human IGF-1R, native, on cells (MCF-7, …). Nature of the assay: cell-based or functional assay. This is another data set of the same source.
The target of assay [3] is monkey IGF-1R on COS-7 cells (monkey (African green monkey)). Description: cell-based or functional assay.
The target in assay [4] is T2, soluble recombinant human IGF-1R hetero-tetramer with C-terminal 10-His tag (R&D Systems 305-GR-50) (human, UniProt P08069 31-736; P08069 741-932).
T2 construct: domain: alpha chain;domain: extracellular domain of the beta chain; Captured on an anti-His antibody chip; also called recombinant soluble human-IGF-1R; h-IGF-1R
Nature of the assay: SPR Biacore X100, His-captured soluble h-IGF-1R (about 600 RU), mean of 4 experiments. How it is done:
The dissociation constants (KD) of the binding of the antibodies on a recombinant soluble human-IGF-1R were defined by the ratio between the dissociation rate (koff) and the association rate (kₒₙ). The kinetic experiments were run on a Biacore X100 device using a CM5 sensor chip activated by a mouse anti-Tag His monoclobnal antibody. Around 12000 RU of antibodies are chemically grafted on the carboxymethyldextan matrix using the amine kit chemistry.
The experiments were carried out at 25° C. with a flow rate of 30 μl/min using the HBS-EP+ buffer (GE Healthcare) as the running and sample dilution buffer.
The single cycle kinetic scheme was used to define the kinetic parameters of the binding of the anti-IGF-1R antibodies on a soluble recombinant human IGF-1R captured by its two C-terminal 10 Histidine-tag. [0637] 1—A solution of a soluble recombinant version of the human IGF-1R hetero-tetramere: 2a chains and the extracellular domains of 2β chains expressed with an additional C-terminal 10-His tag (R&D Systems catalogue number 305-GR-50) was injected during one minute on the second flowcell at a concentration of 10 μg/ml. […] [0638] 2—After the capture phase, either the running buffer was injected 5 times (90 s each injection) or a growing range of 5 concentrations of one of the six antibodies was injected (90 s each injection) on both flowcells. At the end of the fifth injection the running buffer was passed during 5 minutes in order to define the dissociation rate. [0639] 3—The surface was then generated with an injection of a 10 mM Glycine, HCl pH 1.5 buffer during 45 s.
A general note: Surface plasmon resonance follows binding to a sensor surface in real time, without labels.

Assay [5] addresses T3, recombinant human Insulin Receptor protein (R&D Systems, Cat 1544-IR/CF) (human, UniProt P06213-2 28-944).
T3 construct: Bought protein coated on ELISA plates; also called rhIR; rh Insulin R
Description: direct ELISA, coated rhIR. How it is done: In all direct ELISAs, proteins of interest were immobilized (1 μg/ml) to the bottom of each well. After saturation, hybridoma supernatants were added to the wells. After a 1-hour incubation period and a washing step, a solution of goat anti-mouse IgG—HRP labelled polyclonal antibody was used for detection, prior to the addition of the TMB substrate. The reaction was stopped with a 1M H₂SO₄ solution before reading the OD with a spectrophotometer at a 450 nm wavelength.
(In an ELISA, binding on a coated surface is turned into a signal by an enzyme label.)

The target in assay [6] is T1, human IGF-1R, native, on cells (MCF-7, …). Nature of the assay: cell-based or functional assay. The source holds these as a separate data set.
Assay [7] has the same target. Description: cell-based or functional assay. This is another data set of the same source.

T3 sequence (P06213 other isoform, or with tags, fused parts or gaps limits assumed): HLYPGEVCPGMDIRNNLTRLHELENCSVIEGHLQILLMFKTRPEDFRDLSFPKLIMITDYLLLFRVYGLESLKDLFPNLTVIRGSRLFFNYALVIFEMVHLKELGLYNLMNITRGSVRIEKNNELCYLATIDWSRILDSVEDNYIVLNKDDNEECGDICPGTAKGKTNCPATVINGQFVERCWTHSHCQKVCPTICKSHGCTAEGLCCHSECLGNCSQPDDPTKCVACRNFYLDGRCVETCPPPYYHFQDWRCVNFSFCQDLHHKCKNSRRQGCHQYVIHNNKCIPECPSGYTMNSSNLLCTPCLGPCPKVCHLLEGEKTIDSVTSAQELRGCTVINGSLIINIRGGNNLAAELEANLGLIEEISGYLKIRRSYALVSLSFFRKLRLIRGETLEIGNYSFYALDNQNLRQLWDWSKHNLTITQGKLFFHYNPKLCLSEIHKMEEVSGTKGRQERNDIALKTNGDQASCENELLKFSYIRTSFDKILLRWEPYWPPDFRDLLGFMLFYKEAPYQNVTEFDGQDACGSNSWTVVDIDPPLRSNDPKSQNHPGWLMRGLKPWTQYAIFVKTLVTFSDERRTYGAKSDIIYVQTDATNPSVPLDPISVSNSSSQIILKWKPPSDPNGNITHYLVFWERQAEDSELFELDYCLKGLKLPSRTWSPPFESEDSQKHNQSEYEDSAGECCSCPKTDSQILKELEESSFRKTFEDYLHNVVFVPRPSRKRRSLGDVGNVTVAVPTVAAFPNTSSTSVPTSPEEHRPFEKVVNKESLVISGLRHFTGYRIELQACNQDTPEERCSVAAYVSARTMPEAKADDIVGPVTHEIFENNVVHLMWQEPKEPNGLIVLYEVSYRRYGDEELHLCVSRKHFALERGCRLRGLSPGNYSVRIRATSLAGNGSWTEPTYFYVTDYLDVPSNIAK

B1: c213B10 (antibody, human IgG1, kappa)
heavy: not shown
light: DIQMTQTTSSLSASLGDRVTISCRASQDISKYLNWYQQQPDGTIKLLIYYTSRLHSGVPSRFSGRGSGTDYSLTITNLEQEDIATYFCQQGSALPYTFGGGTKLEIKRTVAAPSVFIFPPSDEQLKSGTASVVCLLNNFYPREAKVQWKVDNALQSGNSQESVTEQDSKDSTYSLSSTLTLSKADYEKHKVYACEVTHQGLSSPVTKSFNRGEC
notes: also called chimeric 213B10
Turning to B1, the “phosphorylation of hIGF-1R, % of phosphorylation induced by IGF-1 (MCF-7 cells, 10 µg/ml)” value in assay [1] is less than 10%. The “ΔMFI (MCF-7, 10 µg/ml, 4 h)” value in assay [2] was 369 MFI. In assay [3], the “% internalisation (monkey IGF-1R)” value was found to be 73% and the “ΔMFI (monkey IGF-1R internalization)” value worked out at 101 MFI. The Kd in assay [4] is approximately 0.03 nM.

B2: m212A11 (murine 212A11, hybridoma CNCM I-4773) (antibody, V domains shown)
VH: QVQLQQSGPELVKPGASVKMSCKASGYTFTSYYIHWVKQRPGQGLEWIGWIWPGDGSTKYNEKFKGKTTLTADKSSSTAYMFLSSLTSEDSAVYFCASPMITPNYAMDYWGQGASVTVSS
VL: DIQMTQTTSSLSASLGDRVTISCRASQDINKYLNWYQQQPDGTVKLLIYYTSRLHSGVPSRFSGRGSGTDYSLTISNLEQEDIATYFCQQGSTLPYTFGGGTKLEIK
As for B2, in assay [1], the “decrease of IGF1-induced phosphorylation of hIGF-1R (MCF-7 cells)” value (“decrease” for short) was 80%. Besides, in assay [3], the “% internalisation (monkey IGF-1R)” value was 73% and the “ΔMFI (monkey IGF-1R internalization)” value stood at 83 MFI.

B3: c212A11 (antibody, human IgG1, kappa, V domains shown)
VH: QVQLQQSGPELVKPGASVKMSCKASGYTFTSYYIHWVKQRPGQGLEWIGWIWPGDGSTKYNEKFKGKTTLTADKSSSTAYMFLSSLTSEDSAVYFCASPMITPNYAMDYWGQGASVTVSS
VL: DIQMTQTTSSLSASLGDRVTISCRASQDINKYLNWYQQQPDGTVKLLIYYTSRLHSGVPSRFSGRGSGTDYSLTISNLEQEDIATYFCQQGSTLPYTFGGGTKLEIKR
notes: also called chimeric 212A11
B3: the “phosphorylation of hIGF-1R, % of phosphorylation induced by IGF-1 (MCF-7 cells, 10 µg/ml)” value in assay [1] was less than 10%. Also, in assay [2], the “ΔMFI (MCF-7, 10 µg/ml, 4 h)” value came out at 322 MFI. In addition, in assay [3], the “% internalisation (monkey IGF-1R)” value is 75% and the “ΔMFI (monkey IGF-1R internalization)” value was determined as 98 MFI. For the same molecule, the Kd in assay [4] was approximately 0.03 nM.

B4: 816C12 (antibody, V domains shown)
VH: EVQLQQSGPELVKPGASVKMSCKASGHTFTSYVLHWMKRKPGQGLEWIGYINPHNDVTKYNENFKGKATLTSDKYSSTVYMEVSSLTSEDSAVYYCVSTAYYGNGRYFDVWGAGTTVTVSS
VL: DIQMTQTTSSLSASLGDRVTISCRASQDINNYLNWYQQKPDGTVKLLIYYTSRLHSGVSSRFSGSGSGTDYSLTISNLEQEDIATYFCQQGNTLPWTFGGGTKLEIK
notes: Murine monoclonal antibody from hybridoma CNCM I-4894; also called m816C12; I-4894
Consider B4, for which the binding result in assay [5] is “no binding (tested: 5 µg/ml)”.

B5: m208F2 (murine 208F2, hybridoma CNCM I-4757) (antibody, V domains shown)
VH: QVQLQQSGPELVKPGASVKMSCKASGYTFTSYYIYWVKQRPGQGLEWLGWIWPGDGSTKYNEKFKDKTTLTADKSSNTAYMFLSSLTSEDSAVYFCASPMITPNYAMDYWGQGASVTVSS
VL: DIQMTQTTSSLSASLGDRVTISCRASQDISKYLNWYQQQPDGTIKLLIYYTSRLHSGVPSRFSGRGSGTDYSLTISNVEQEDIATYFCQQGSTLPYTFGGGTKLEIK
For the molecule B5, the “decrease” value in assay [1] turned out to be 80%. Further, the “MFI 37°C (MCF7 internalisation assay)” value in assay [6] stood at 94 MFI. Moreover, in assay [3], the “% internalisation (monkey IGF-1R)” value came out at 74% and the “ΔMFI (monkey IGF-1R internalization)” value worked out at 53 MFI. Besides, in assay [7], the “% internalization (MCF-7, 10 µg/ml, 4 h)” value is 88% and the “ΔMFI (MCF-7, 10 µg/ml, 4 h)” value amounted to 294 MFI.

B6: c214F8 (antibody, human IgG1, kappa)
heavy: not shown
light: DIQMTQTTSSLSASLGDRVTFSCRASQDISKYLNWYQQQPDGTIKLLIYYTSRLHSGVPSRFSGRGSGTDYSLTITNLEQEDIATYFCQQGSALPYTFGGGTKLEIKRTVAAPSVFIFPPSDEQLKSGTASVVCLLNNFYPREAKVQWKVDNALQSGNSQESVTEQDSKDSTYSLSSTLTLSKADYEKHKVYACEVTHQGLSSPVTKSFNRGEC
notes: also called chimeric 214F8
Consider B6, for which the “phosphorylation of hIGF-1R, % of phosphorylation induced by IGF-1 (MCF-7 cells, 10 µg/ml)” value in assay [1] is less than 10%. For the same molecule, the “ΔMFI (MCF-7, 10 µg/ml, 4 h)” value in assay [2] was determined as 403 MFI. Moreover, in assay [3], the “% internalisation (monkey IGF-1R)” value was 72% and the “ΔMFI (monkey IGF-1R internalization)” value turned out to be 98 MFI. In addition, the Kd in assay [4] is approximately 0.03 nM.

B7: c219D6 (antibody, human IgG1, kappa, V domains shown)
VH: QVQLQQSGPELVKPGDSVKMSCKASGYSFTSYFIHWVKQRPGQGLEWIGWIWPGDGSTKYNEKFKGKTTLTTDKSSSTAYMFLNSLTSEDSAVYFCASPMITPNYAMDYWGQGASVTVSS
VL: DIQMTQTTSSLSASLGDRVTISCRASQDISKYLNWYQQQPDGTVKLLIYYTSRLHSGVPSRFSGRGSGTDYSLTISNLEQEDIATYFCQQGSTLPYTFGGGTKLEIKR
notes: also called chimeric 219D6
For B7, in assay [1], the “phosphorylation of hIGF-1R, % of phosphorylation induced by IGF-1 (MCF-7 cells, 10 µg/ml)” value was less than 10%. Besides, the “ΔMFI (MCF-7, 10 µg/ml, 4 h)” value in assay [2] is 353 MFI. Also, in assay [3], the “% internalisation (monkey IGF-1R)” value is 74% and the “ΔMFI (monkey IGF-1R internalization)” value turned out to be 102 MFI. Moreover, the Kd in assay [4] was approximately 0.03 nM.

B8: m219D6 (murine 219D6, hybridoma CNCM I-4736) (antibody, V domains shown)
VH: QVQLQQSGPELVKPGDSVKMSCKASGYSFTSYFIHWVKQRPGQGLEWIGWIWPGDGSTKYNEKFKGKTTLTTDKSSSTAYMFLNSLTSEDSAVYFCASPMITPNYAMDYWGQGASVTVSS
VL: DIQMTQTTSSLSASLGDRVTISCRASQDISKYLNWYQQQPDGTVKLLIYYTSRLHSGVPSRFSGRGSGTDYSLTISNLEQEDIATYFCQQGSTLPYTFGGGTKLEIK
For the molecule B8, the “decrease” value in assay [1] was determined as 80%. In addition, in assay [3], the “% internalisation (monkey IGF-1R)” value was 71% and the “ΔMFI (monkey IGF-1R internalization)” value came to 80 MFI.

B9: m213B10 (murine 213B10, hybridoma CNCM I-4774) (antibody, V domains shown)
VH: QVQLQQSGSELVKPGASVKMSCKASGYTFTSYYIHWVKQRPGQGLEWIGWIWPGDGSTKYNERFKGKTTLTADKSSSTAYMFLSSLTSEDSAVYFCASPMITPNYAMDYWGQGASVTVSS
VL: DIQMTQTTSSLSASLGDRVTISCRASQDISKYLNWYQQQPDGTIKLLIYYTSRLHSGVPSRFSGRGSGTDYSLTITNLEQEDIATYFCQQGSALPYTFGGGTKLEIK
Turning to B9, in assay [1], the “decrease” value was found to be 80%. Also, the “MFI 37°C (MCF7 internalisation assay)” value in assay [6] came to 115 MFI. In addition, in assay [3], the “% internalisation (monkey IGF-1R)” value was found to be 74% and the “ΔMFI (monkey IGF-1R internalization)” value came out at 84 MFI.

B10: m214F8 (murine 214F8, hybridoma CNCM I-4775) (antibody, V domains shown)
VH: QVQLQQSGSELVKPGASVKLSCKASGYTFTSYYIHWVKQRPGQGLEWIGWIWPGDGSTKYNERFKGKTTLTADKSSSTAYMFLSSLTSEDSAVYFCASPMITPNYAMDYWGQGASVTVSS
VL: DIQMTQTTSSLSASLGDRVTFSCRASQDISKYLNWYQQQPDGTIKLLIYYTSRLHSGVPSRFSGRGSGTDYSLTITNLEQEDIATYFCQQGSALPYTFGGGTKLEIK
On to B10, for which the “decrease” value in assay [1] was 80%. For the same molecule, the “MFI 37°C (MCF7 internalisation assay)” value in assay [6] stood at 111 MFI. In assay [3], the “% internalisation (monkey IGF-1R)” value is 71% and the “ΔMFI (monkey IGF-1R internalization)” value turned out to be 76 MFI.

B11: 810D12 (antibody, V domains shown)
VH: EVQLQQSGPELVKPGASVKMSCKASGHTFTSYMLHWVKQKPGQGLEWLGFINPYNDVTKYNENFKGKATLTSDKSSSTAYMELNSLTSEDSAVYFCVTTAYYGNGRYFDVWGAGTTVTVSS
VL: DIQMTQTTSSLSASLGDRVTISCRASQDITNYLTWYQQKPDGTVKVLIYYTSRLYSGVPSRFSGSGSGSDYSLTINNLEQEDIATYFCQQGYSLPWTFGGGTKLEIK
notes: Murine monoclonal antibody from hybridoma CNCM I-4893; also called m810D12; I-4893
B11: the binding result in assay [5] is “no binding (tested: 5 µg/ml)”.

What is called Kd is the constant that tells how readily two partners part at equilibrium.
